Assay results from the supplement of paper PMC10724198.
± gives the standard deviation of the averaged measurements.

System: Saccharomyces cerevisiae
Assay: protein stability index of tFT-peptide fusion (C-terminal peptide) (PSI (0-1 scale)); higher = more stable (slower turnover)
Conditions: genetic background: wild type; temperature: 30 C
Procedure: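 Multiplexed protein stability (MPS) profiling in S. cerevisiae. Random 12-aa peptides (tFT-X12 library) are fused to the C-terminus of a sfGFP-mCherry tandem fluorescent timer, after mCherry and a GGGS linker. Cells are FACS-sorted into 8 mCherry/sfGFP bins and deep-sequenced. The protein stability index (PSI) is the read-weighted bin average, scaled from 0 (unstable) to 1 (stable). Only peptides with >10 reads are reported; cells were grown at 30 °C in SC-His with glucose.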
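Note: PSI is a weighted mean of sequencing reads over stability bins, variants kept only with over 10 reads, mCherry proximal and sfGFP distal, peptide attached via GGGS linker.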

In order of falling protein stability index:
1. DRPYTEILEFRL  0.834 ± 0.14
2. YGGRQRCRGRVE  0.825 ± 0.16
3. KLKTTEKTNPRE  0.805 ± 0.14
4. ESAVHRTRRIPY  0.7888 ± 0.0046
5. PPPPPPPSPPFS  0.783 ± 0.031
6. FLDSFCFFPPLP  0.778 ± 0.014
7. DYHWPFIRTATE  0.774 ± 0.027
8. HRWCLADYVEVG  0.773 ± 0.063
9. PPPGPNPPSSPS  0.758 ± 0.036
10. RARVGGRQLRRV  0.753 ± 0.15
11. PSRPRPRRRRQA  0.751 ± 0.073
12. LFFSIVSPPCGR  0.748 ± 0.068
13. RKKGKLESKKQK  0.742 ± 0.12
14. GSAHSFTLLVLP  0.742 ± 0.043
15. FDAWSLASASLV  0.741 ± 0.036
16. SLSIFLRDALGF  0.74 ± 0.035
17. SLVSGPRPPSAF  0.737 ± 0.089
18. PFRPPPPPSSPP  0.735 ± 0.037
19. SENNLKHEKVIE  0.735 ± 0.22
20. GTLAAGGGVPMS  0.734 ± 0.034
21. LPLPGSFTLNYP  0.733 ± 0.013
22. PPPLPPGPALPL  0.732 ± 0.012
23. CVMDKEYGYAIK  0.729 ± 0.0094
24. PRFLGWGGCLWV  0.7265 ± 0.0045
25. CCSWPSRLLLEG  0.722 ± 0.026
26. CSSLPSRPLLPH  0.7209 ± 0.0062
27. PLFPPPSLLTPH  0.719 ± 0.14
28. TLRPPPPPAFPP  0.719 ± 0.084
29. PRASPPPLPPSP  0.717 ± 0.032
30. CSAALTTLLDFA  0.715 ± 0.018
31. RHILPNKCRLHH  0.714 ± 0.2
32. FPPLCSSSPPLP  0.7131 ± 0.0069
33. PPLLPYHPTRFD  0.713 ± 0.012
34. LGTLLWGGAGRG  0.713 ± 0.01
35. SPRLQAFPGSRA  0.713 ± 0.032
36. VRGRREGVADER  0.712 ± 0.084
37. DVVLFQLGSELV  0.712 ± 0.013
38. SLEYIFSCWSLY  0.711 ± 0.1
39. GRAGLDLACWWK  0.709 ± 0.03
40. PPLLRAPLLPPC  0.708 ± 0.021
41. HVTHPGCTLQLR  0.707 ± 0.071
42. PLPTLPFPCSPS  0.706 ± 0.016
43. RPASPASSPFFP  0.70509 ± 0.00065
44. PSRASGPYPRLS  0.701 ± 0.019
45. SVPLTPKTPPPP  0.701 ± 0.049
46. LPAISSPIPPSL  0.701 ± 0.048
47. PPPAPSPLPLFP  0.7 ± 0.045
48. SVRLVGHGARDR  0.699 ± 0.18
49. PLPPRPHPPPPY  0.695 ± 0.037
50. LVSGASHWPSYT  0.694 ± 0.014
51. KRKRSERRRGKP  0.693 ± 0.015
52. TACPPSTPSTAF  0.689 ± 0.033
53. PTLSSPHPPNNY  0.689 ± 0.021
54. RGGDGGGLRTRD  0.688 ± 0.037
55. KAPCRVGARKGG  0.688 ± 0.051
56. PGRLPPPFASFF  0.687 ± 0.0091
57. APRTRLCVHEIP  0.686 ± 0.01
58. TERPMAVESRAW  0.686 ± 0.012
59. GGREDGKRGRQK  0.684 ± 0.055
60. ELSCMDGPLLCP  0.683 ± 0.059
61. PSPPPLLAPSPL  0.683 ± 0.096
62. SAASLWSGFRYG  0.68 ± 0.0085
63. RGPGMVRAFAEA  0.679 ± 0.011
64. LPPHRPPAPDLS  0.674 ± 0.049
65. GGFLATAGLSVT  0.673 ± 0.056
66. PPPPHAPSASPP  0.668 ± 0.022
67. GRKPGGGRRAPE  0.666 ± 0.028
68. AISPLLPSFSPP  0.665 ± 0.037
69. SSLLFVMSYGLL  0.661 ± 0.027
70. LPSSVLTAAPSA  0.661 ± 0.076
71. IGEGLLFWFGIR  0.66 ± 0.042
72. FLSHRMNMSGLA  0.658 ± 0.016
73. GKLKVKIYESSK  0.658 ± 0.061
74. PSNDNTMIPILE  0.656 ± 0.04
75. RTWDNTRDLDEL  0.656 ± 0.019
76. NMLYRKEGWTKE  0.655 ± 0.036
77. PVRSPPPLPSPP  0.653 ± 0.037
78. CYKKRKKTNNYE  0.653 ± 0.02
79. ISRATMKARARG  0.6522 ± 0.004
80. PHPRFYPSTPPP  0.64827 ± 7.8e-06
81. VIFCVGRFSGGS  0.645 ± 0.085
82. GGVPGEGTGGRE  0.644 ± 0.027
83. YIVPAGGGLVSG  0.642 ± 0.096
84. QYGVSIRRDSRP  0.642 ± 0.035
85. GDIGAGMGVVGE  0.641 ± 0.0049
86. LPSLPPPPSPSS  0.641 ± 0.029
87. PSTSCQRLLTLT  0.639 ± 0.018
88. PPPPGLPSSPPP  0.625 ± 0.051
89. WCVLLMALFRWW  0.625 ± 0.025
90. GLFCGLGVGTCG  0.621 ± 0.059
91. YASLSGSRYRPG  0.62 ± 0.051
92. VIFIRCFNFQDG  0.614 ± 0.052
93. VLRSSFYLSFPR  0.611 ± 0.013
94. PPPSRPPQLHPA  0.605 ± 0.021
95. VSRITSRFEKKM  0.592 ± 0.0086
96. RRVVIVSGWGWG  0.591 ± 0.064
97. LLFGMRPMLFSF  0.576 ± 0.038
98. VRVCWGCCGVVF  0.51 ± 0.024
